From paper PMC8880779 (International Journal of Molecular Sciences, 2022)

Legend:
calmodulin (CaM) = target: T1, calmodulin (CaM) (Bos taurus, UniProt P62157); assay: Kinetics of Aβ(1–42) HiLyte-Fluor555 complex formation with CaM (fluorescence increase); assay type: binding, human
T1 construct: Purified bovine brain CaM; purchased Sigma-Aldrich (Madrid, Spain); host or cells: bovine brain

[1] = Aggregation state of Aβ(1–42) stock solutions (photoinduced cross-linking of unmodified proteins); assay type: physicochemical; details: 2 μM stock solutions
(Ca^2+)4-CaM = details: read-out: dissociation constant of the Aβ:(Ca^2+)4-CaM complex; cited from earlier work
From the text: These neurons are in the brain areas that are highly prone to neurodegeneration in AD. […] Considering their spatial organization in the CaM structure, we included a couple of additional hydrophobic amino acid residues as spacing groups.

[2] = tested on: CaM in cerebellar granule neurons in culture; details: 2 h incubation with 2 μM Aβ(1–42) oligomers; cited from earlier work
From the text: These neurons are in the brain areas that are highly prone to neurodegeneration in AD. […] Therefore, CaM has a high capacity to buffer the intracellular concentrations of these highly neurotoxic Aβ peptides ...

[3] = parameters: method as in PMID 15890345, PMID 18686032, PMID 26890761, PMID 34829555; details: cited from earlier work

| Substance | Y0, maximum fluorescence increase in the absence of the peptide (calmodulin (CaM); 10 nM Aβ(1–42) HiLyte-Fluor555, 5 nM CaM, 1000 s after addition, hyperbolic fit R^2 = 0.966, triplicate) [%] | maximum fluorescence change vs CaM concentration (calmodulin (CaM); 10 nM Aβ(1–42) HiLyte-Fluor555, CaM 2.5, 5 and 10 nM) | slope of linear least-squares fit of first-order plot (calmodulin (CaM); fit y = 9.845 − 0.00396 x (R^2 = 0.922), 10 nM Aβ(1–42) HiLyte-Fluor555, 5 nM CaM, sign of slope in the equation negative) | stoichiometry of complex (calmodulin (CaM); 10 nM CaM, 10 nM Aβ(1–42)) | increase of rate constant (calmodulin (CaM); 10 nM vs 5 nM CaM, 10 nM Aβ(1–42)) | rate constant of the kinetic process (calmodulin (CaM); 1:1 molar ratio, 10 nM CaM and 10 nM Aβ(1–42)) | concentration of monomers [1] | predominant aggregation state ([1]; 1% NH4OH diluted with phosphate-buffered saline) | Kd ((Ca^2+)4-CaM) [nM] | binding of internalized Aβ(1–42) by CaM [2] | neurotoxicity [3] |
| --- | --- | --- | --- | --- | --- | --- | --- | --- | --- | --- | --- |
| Aβ(1–42) HiLyte^TM-Fluor555: Human Aβ(1–42)-HiLyte™-Fluor555 obtained from AnaSpec | 22 | the maximum fluorescence change was achieved when CaM concentration increased from 2.5 to 5 nM, and it is not significantly different between 5 and 10 nM of CaM | 0.00396 | – | – | – | – | – | – | – | – |
| Aβ(1–42): unlabeled Aβ(1–42) synthesized and supplied by StabVida and GenicBio Limited | – | – | – | Aβ(1–42)2:CaM2 complexes | about 4 fold | (18 ± 4)·10^−3 s^−1 | undetectable concentration of Aβ(1–42) monomers | Dimers are the predominant aggregation state | ~1 | CaM binds most of the Aβ(1–42) internalized in cerebellar granule neurons | – |
| Aβ(25–35): highly neurotoxic peptides derived from Aβ(1–42), like Aβ(25–35) (GSNKGAIIGLM; Amyloid-beta protein 42; UniProt P05067 696-706, looked up, fragment) | – | – | – | – | – | – | – | – | ~1 | – | strongly neurotoxic |
